Test system: MS2 coat protein
Test: apparent KD of MS2 coat protein; designed switch direction (-1 OFF switch, 1 ON switch): -1; higher = weaker reporter binding
How it was run: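 Designed RNA switches were transcribed on Illumina chips by stalled E. coli RNA polymerase and titrated with SNAP-549-labelled MS2 coat protein from 0.7 or 1.5 nM, doubling to 3 µM. Step length ran from 0.8–1.5 h at the lowest concentration to 10–20 min at the highest. The apparent KD is the median over clusters for each design, from curve-fitted normalised cluster fluorescence.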

[1] = input ligand: microRNA oligo, concentration not stated
[2] = Eterna round: R95, input ligand: FMN 200 uM
[3] = Eterna round: R95, input ligand: microRNA oligo, concentration not stated
[4] = Eterna round: R95, input ligand: none

Sequence	apparent KD of MS2 coat protein (input ligand: FMN 200 uM) [nM]	apparent KD of MS2 coat protein [1] [nM]	apparent KD of MS2 coat protein (input ligand: none) [nM]	apparent KD of MS2 coat protein [2] [nM]	apparent KD of MS2 coat protein [3] [nM]	apparent KD of MS2 coat protein [4] [nM]
AGAUGCUCAAGUCGACAUGAGGAUCACCCAUGUACAGUUAAUGAGGAUAUCCGAGAUAAAUAAUAGGAGAAGGUAUGAUCAUGA [Ex NG3 #5] (Eterna round: R96, puzzle: Exclusion NG 3)	86.7	175	59.5			
AGAUGCUCGAGUCGACAUGAGGAUCACCCAUGUACAGUUAGUGAGGAUAUCGGAGACACAUAGUAUGAGAAGGCGCGAACGUGA [Ex NG3 #15] (Eterna round: R96, puzzle: Exclusion NG 3)	224	52.1	97.8			
AGAUGCUCGAGUCGACAUGAGGAUCACCCAUGUACAGUUAGUGAGGAUAUCUGAGACACAUAGUAGGAGAAGGCGCGAACGUGA [Ex NG3 #14] (Eterna round: R96, puzzle: Exclusion NG 3)		58.6				
AGAUGGCGAGGAUAUACAUGAGGAUCACCCAUGUGAGAAGAAGAAGUGAGGAAGAAAAGUAGAAGGCGCUGUCA [Mat - Exclusion 3 - Mod of Salish D20] (puzzle: Exclusion 3)				145	50.3	44.9
AGAUGUAGAUACCGAUCCUACAUGAGGAUCACCCAUGUAGCUAGACGUGCACGCGUAGCUCGUCAGACUACCAGUAG [salish99_TOv1_r3_086] (puzzle: Sensor v3, turn-off variant 1)				372	336	363
AGCAGACGAGGAUAUGAUAAUUAAUACAUGAGGAUCACCCAUGUAAUACUGAUCCAUGGAUCAGAAGGCGUCUGCU [E5/4-A1] (Eterna round: R97, puzzle: Exclusion 5)	27.1		17.6			
AGCAUGCAGCAGGAUAUCGAUCCGCAGUAUGAUCGAGAAGGGCUGACAUGAGGAUCACCCAUGUGCGUCCUAGG [jl-ex6-4.42 ViennaUCT mod] (Eterna round: R97, puzzle: Exclusion 6)	295		66.3			
AGCAUGCAGUAGGAUAUCGAUCCACAAUAUGAACGAGAAGGGCUGACAUGAGGAUCACCCAUGUGCGUCCGAAG [Ersoontiri] (Eterna round: R97, puzzle: Exclusion 6)	21		16.8			
AGCAUGCUAGGAUAUACGGGACAUUAGGGUUCGUUGUAUGGACAUGAGGAUCACCCAUGUAGAAGGAGCGUGCA [Mat - Exclusion 2 - Mod of Hyphema - D94] (puzzle: Exclusion 2)					23.5	
AGCAUGUAAGGAUAUGCAACACAGCUUUCAAUCGCUGUGCCGCAGAAGGUACAUGAGGAUCACCCAUGUGCUCC [Anesonza] (puzzle: Exclusion 4)					75.6	
AGCAUGUGAGGAUAUGCGAAGGGAAGGAGAGGGAAAGAGAAGCAGAAGGCACAUGAGGAUCACCCAUGUAAGGG [AK-MS2ROC-r4-exclusion4-8.1] (Eterna round: R97, puzzle: Exclusion 4)	63.9		969			
AGCCACAGAGGAUAUACAUACAUCCAGUAGUAGAGAAUACUACAUGAGGAUCACCCAUGUAGAAGGCUGUGGCA [Omei Ex2 BD B14] (Eterna round: R97, puzzle: Exclusion 2)	316		438			
AGCCCUGCAGGAUAUGCCCGGGAUAACAUGAGGAUCACCCAUGUGACCGAUUGUUAUCCUGCAGAAGGGCUAGGGA [JL-EX5-4.11 ViennaUCT mod] (Eterna round: R97, puzzle: Exclusion 5)	126		49			
AGCCGGUCGUGAGGAUAUUACAUGAGGAUCACCCAUGUCGACGGGCUACGGGCGGUCGGCUCGUGUGAGAAGGCGCGCCCGGAA [Tibibiza] (Eterna round: R96, puzzle: Exclusion NG 2)	17.3	8.33	17.6			
AGCCUGCAAGUAAGGAUAUGAAGUUAAAAGAACGGUCAGAAGGUACUUGAGGAUCACCCAAGUACGGGAGCGUG [Teuscema] (Eterna round: R97, puzzle: Brourd's mod of Exclusion 4)	41		16.3			
AGCGAAGAGACAGGAUAUGAGAAUAGAUAGAACUCAGAAGGGUCACAUGAGGAUCACCCAUGUAAAGUCUUGAGGCUGCGUGGU [Prohibition 9 - Jieux - Exclusion NG 1] (Eterna round: R96, puzzle: Exclusion NG 1)	141	50.7	71.9			
AGCGAAUAGACAGGAUAUGAGAAUAGAUAGAGCUCAGAAGGGUCACAUGAGGAUCACCCAUGUGAAGUCUUGAGGCUGCGUGGU [Prohibition 18 - Jieux - Exclusion NG 1] (Eterna round: R96, puzzle: Exclusion NG 1)	13.1	13.4	16.1			
AGCGCAUGAGGAUAUACAUGAGGAUCACCCAUGUUCCAGUGAGCACUAGUGAGAGUCAGUAGAAGGUAUAGGGC [Cecete] (Eterna round: R97, puzzle: Exclusion 3)	151		172			
